In patent publication US20080187530A1:

Biological target: formyl peptide receptor-like 1 (FPRL1) (human) (UniProt P25090)
Test: cell-based or functional assay

UniProt P25090, sequence (P25090 whole entry): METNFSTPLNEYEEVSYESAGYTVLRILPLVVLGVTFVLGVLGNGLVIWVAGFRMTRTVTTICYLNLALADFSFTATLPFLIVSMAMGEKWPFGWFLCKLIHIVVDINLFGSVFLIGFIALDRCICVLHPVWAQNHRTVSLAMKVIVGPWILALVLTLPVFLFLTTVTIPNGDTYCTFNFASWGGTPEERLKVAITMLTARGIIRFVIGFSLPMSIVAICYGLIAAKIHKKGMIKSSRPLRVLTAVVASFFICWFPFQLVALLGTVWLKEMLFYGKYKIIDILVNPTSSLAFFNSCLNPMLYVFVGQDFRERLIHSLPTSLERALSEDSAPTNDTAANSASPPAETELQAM

LL-37 peptide (from UniProt P49913 134-170)
decrease in proliferation of HaCaT cells treated with LL-37 after pretreatment with pertussis toxin: 50%
